The source of these data is patent US20190185898A1 (UNIVERSITY OF MARYLAND BALTIMORE COUNTY, published 2019).

The test concerns the target T1, core-fucosylated complex type glycoform of rituximab (30).
T1 construct: Obtained from 28 by AlfC E274A catalysed core fucosylation; also called fucosylated rituximab (30); core fucosylated antibody (30)
In words: ELISA, glycoprotein coated, AAL-biotin in serial dilution. Here is the method:
The glycoprotein (20, 21, 28 or 30) (10 μg/ml) in a phosphate buffer (pH 7.5) was coated onto a 96-well plate (UltraCruz®) at 4° C. for overnight. After wash twice, 2% bovine serum albumin in PBS containing Tween® 20 (PBST buffer) was added to block the plate for 2 h. Subsequently, after washed twice again, a serial dilution of AAL-biotin ranging from 0.1 μM to 1000 μM in PBST buffer was added and the plate was incubated for 1 h. After washing, peroxidase streptavidin (2 μg/mL) (Jackson ImmunoResearch Inc.) was added and incubated for 1 h. Finally, 100 μL of substrate, 3, 3′, 5, 5′-tetramethylbenzidine was added for signal development. The reaction was stopped by the adding 100 μL of 20% sulfuric acid (v/v). The absorbance at 450 nm was measured using SpectraMax M5 microplate reader (Molecular Devices). For the binding of the N-glycans, the Fmoc-labeled N-glycans released from 20, 21, 28 and 30 (1 μg/ml) were coated on the plate and the ELISA analysis was performed in the same manner as that of the glycoproteins.
Background: An ELISA detects its analyte on a solid surface through an enzyme-linked reagent.

B1: Aleuria aurantia lectin (AAL) (other, UniProt P18891 2-313, looked up)
chain: PTEFLYTSKIAAISWAATGGRQQRVYFQDLNGKIREAQRGGDNPWTGGSSQNVIGEAKLFSPLAAVTWKSAQGIQIRVYCVNKDNILSEFVYDGSKWITGQLGSVGVKVGSNSKLAALQWGGSESAPPNIRVYYQKSNGSGSSIHEYVWSGKWTAGASFGSTVPGTGIGATAIGPGRLRIYYQATDNKIREHCWDSNSWYVGGFSASASAGVSIAAISWGSTPNIRVYWQKGREELYEAAYGGSWNTPGQIKDASRPTPSLPDTFIAANSSGNIDISVFFQASGVSLQQWQWISGKGWSIGAVVPTGTPAGW
modifications: biotin label (AAL-biotin), site not stated
notes: Lectin that recognises the α1,6-fucosylated glycan; Added in serial dilution (0.1 µM to 1000 µM) to the coated glycoprotein; also called AAL-biotin
Usually EC50 stands for the concentration that produces a half-maximal response. Read a low EC50 as greater potency. As to B1, it took 15 µM to reach a half-maximal effect (EC50) and the “fold higher affinity than core-fucosylated RNase B (21)” value was approximately 17 fold.
